Patent US20190382481A1 (Janssen / Centocor, published 2019)
Numbering of substitutions follows the chain as printed.

B1: C33B913 (antibody, V domains shown)
VH: EVQLLESGGGLVQPGGSLKLSCTASGFTFRSYAMSWVRQAPGKGLEWVSAINGYGDGRYYADSVKGRFTISRDNSKNTLYLQMNSLRAEDTAVYSCAKDQGFGELFFDYWGQGTLVTVSS
VL: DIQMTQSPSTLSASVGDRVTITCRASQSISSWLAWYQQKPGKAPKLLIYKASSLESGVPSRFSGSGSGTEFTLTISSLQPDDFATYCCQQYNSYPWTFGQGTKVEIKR
notes: OMNIMouse mAb; HC C33H253, LC C33L119 (same IDs as C33B905); also called C33F551
B2: C33B914 (antibody, V domains shown)
VH: QVQLVESGGGVVQPGRSLRLSCAASGFTFSYYGMHWVRQAPDKGLEWVAVIWFDGNNKYYADSVKGRFTISRDNSKNTLYLQMNSLRAEDTAVYYCARDRELLFDYWGQGTLVTVSS
VL: SYELTQPPSVSVSPGQTASITCSGDELGDMYACWYQQKPGQSPLVVIYQDSKRPSGIPERFSGSNSGNTATLTISGTQAMDEAAYYCQTWDTRIAVFGGGTNLTVLG
notes: OMNIMouse mAb; HC C33H254, LC C33L120 (same IDs as C33B906); also called C33F552
B3: C33B909 (antibody, V domains shown)
VH: EVQLVESGGGLVQPGRSLRLSCVASGFTFDDYAIHWVRQAPGKGLEWVSGLSWNGGNIGYADSVKGRFTISRDNAKNSLYLQMNSLKTEDTAFYYCTKDTPYGDYFDYWGQGTLVTVSS
VL: DIQMTQSPSSVWASVGDRVTITCRASQGISSWLAWYQQQPGKAPNLLIYRSSSLQSGVPSRFSGSGSGTDFTLTISSLQPEDFATYYCQQDNSFPYTFGQGTKLEIKR
notes: OMNIMouse mAb; HC C33H249, LC C33L115 (same IDs as C33B901); the campaign was cloned into both IgG1 and IgG4 PAA
B4: C33B910 (antibody, V domains shown)
VH: B3 VH with V23A, A24G, M83L, T97A, T100S
VL: B3 VL with V11E, Q39K, N45K, R50G, S51A, L54W
notes: OMNIMouse mAb; HC C33H250, LC C33L116 (same IDs as C33B902)
B5: C33B915 (antibody, V domains shown)
VH: EVQLVESGGGLVQPGRSLRLSCAASGFTFDDYAMHWVRQVPGEGLEWVSGISWNGGDMVYADSVKGRFTISRDNAKNSLYLQMNSLRPEDTALYYCVKDMPYFDFLTGSDYYYYGMDVWGQGTTVTVSS
VL: SYELTQPPSVSVSPGQTASITCSGDNLGNEHVCWYHQKPGQSPVLVIYQNNKRPSGIPERFSGSNSGNTATLSISGTQATDEADYYCQAWDSTTAVFGGGTKLTVLG
notes: OMNIMouse mAb; HC C33H255, LC C33L121 (same IDs as C33B907); also called C33F553
B6: C3CB11 (bispecific antibody, human IgG4 S228P, lambda, F234A L235A)
heavy 1: not shown
light 1: SYELTQPPSVSVSPGQTASITCSGDKLGDKYACWYQQKPGQSPVLVIYQDGKRPSGIPERFSGSNFGNKATLTISGTQAMDEADYYCQAWDRNTVVFGGGTKLTVLGQPKAAPSVTLFPPSSEELQANKATLVCLISDFYPGAVTVAWKADSSPVKAGVETTTPSKQSNNKYAASSYLSLTPEQWKSHRSYSCQVTHEGSTVEKTVAPTECS
heavy 2: EVQLVESGGGLVQPGGSLRLSCAASGFTFNTYAMNWVRQAPGKGLEWVARIRSKYNNYATYYAASVKGRFTISRDDSKNSLYLQMNSLKTEDTAVYYCARHGNFGNSYVSWFAYWGQGTLVTVSSASTKGPSVFPLAPCSRSTSESTAALGCLVKDYFPEPVTVSWNSGALTSGVHTFPAVLQSSGLYSLSSVVTVPSSSLGTKTYTCNVDHKPSNTKVDKRVESKYGPPCPPCPAPEAAGGPSVFLFPPKPKDTLMISRTPEVTCVVVDVSQEDPEVQFNWYVDGVEVHNAKTKPREEQFNSTYRVVSVLTVLHQDWLNGKEYKCKVSNKGLPSSIEKTISKAKGQPREPQVYTLPPSQEEMTKNQVSLTCLVKGFYPSDIAVEWESNGQPENNYKTTPPVLDSDGSFLLYSKLTVDKSRWQEGNVFSCSVMHEALHNHYTQKSLSLSLGK
light 2: QTVVTQEPSLTVSPGGTVTLTCRSSTGAVTTSNYANWVQQKPGQAPRGLIGGTNKRAPGTPARFSGSLLGGKAALTLSGVQPEDEAEYYCALWYSNLWVFGGGTKLTVLGQPKAAPSVTLFPPSSEELQANKATLVCLISDFYPGAVTVAWKADSSPVKAGVETTTPSKQSNNKYAASSYLSLTPEQWKSHRSYSCQVTHEGSTVEKTVAPTECS
B7: C3CB8 (bispecific antibody, human IgG4 S228P, lambda, F234A L235A)
heavy 1: not shown
light 1: B6 light 1 with D25H, L45V, Q49K, G51S, K69T, R92S, N93S
heavy 2: B6 heavy 2
light 2: B6 light 2
B8: C3CB16 (bispecific antibody, human IgG4 S228P, lambda, F234A L235A)
heavy 1: not shown
light 1: not shown
heavy 2: B6 heavy 2
light 2: B6 light 2
B9: C3CB91 (bispecific antibody, human IgG4 S228P, lambda, F234A L235A)
heavy 1: not shown
light 1: SYELTQPPSVSVSPGQTASITCSGDNLGNEHVCWYHQKPGQSPVLVIYQNNKRPSGIPERFSGSNSGNTATLSISGTQATDEADYYCQAWDSTTAVFGGGTKLTVLGQPKAAPSVTLFPPSSEELQANKATLVCLISDFYPGAVTVAWKADSSPVKAGVETTTPSKQSNNKYAASSYLSLTPEQWKSHRSYSCQVTHEGSTVEKTVAPTECS
heavy 2: B6 heavy 2
light 2: B6 light 2
B10: C3CB89 (bispecific antibody, human IgG4 S228P, kappa, lambda, F234A L235A)
heavy 1: not shown
light 1: not shown
heavy 2: B6 heavy 2
light 2: B6 light 2
B11: C3CB14 (bispecific antibody, human IgG4 S228P, lambda, F234A L235A)
heavy 1: not shown
light 1: B6 light 1 with D29N, C33S, G51T, F61V, F66S, K69T, Y86H, R92S, N93S
heavy 2: B6 heavy 2
light 2: B6 light 2
B12: C3CB5 (bispecific antibody, human IgG4 S228P, lambda, F234A L235A)
heavy 1: not shown
light 1: B6 light 1 with A32V, L45V, Y48H, G51R, K69T, R92S, N93S
heavy 2: B6 heavy 2
light 2: B6 light 2
B13: C3CB10 (bispecific antibody, human IgG4 S228P, lambda, F234A L235A)
heavy 1: not shown
light 1: B6 light 1 with L45V, G51R, K69T, R92S, N93S
heavy 2: B6 heavy 2
light 2: B6 light 2
B14: C3CB87 (bispecific antibody, human IgG4 S228P, kappa, lambda, F234A L235A)
heavy 1: not shown
light 1: not shown
heavy 2: B6 heavy 2
light 2: B6 light 2
B15: C3CB90 (bispecific antibody, human IgG4 S228P, lambda, F234A L235A)
heavy 1: not shown
light 1: SYELTQPPSVSVSPGQTASITCSGDELGDMYACWYQQKPGQSPLVVIYQDSKRPSGIPERFSGSNSGNTATLTISGTQAMDEAAYYCQTWDTRIAVFGGGTNLTVLGQPKAAPSVTLFPPSSEELQANKATLVCLISDFYPGAVTVAWKADSSPVKAGVETTTPSKQSNNKYAASSYLSLTPEQWKSHRSYSCQVTHEGSTVEKTVAPTECS
heavy 2: B6 heavy 2
light 2: B6 light 2

Biological target: T1, Human CD33 full length (human, UniProt P20138 18-364)
T1 construct: Stably expressed on HEK293F cells by lentiviral transduction; also called Human CD33 (on HEK293F cells)
T1 sequence (P20138 18-364 limits assumed): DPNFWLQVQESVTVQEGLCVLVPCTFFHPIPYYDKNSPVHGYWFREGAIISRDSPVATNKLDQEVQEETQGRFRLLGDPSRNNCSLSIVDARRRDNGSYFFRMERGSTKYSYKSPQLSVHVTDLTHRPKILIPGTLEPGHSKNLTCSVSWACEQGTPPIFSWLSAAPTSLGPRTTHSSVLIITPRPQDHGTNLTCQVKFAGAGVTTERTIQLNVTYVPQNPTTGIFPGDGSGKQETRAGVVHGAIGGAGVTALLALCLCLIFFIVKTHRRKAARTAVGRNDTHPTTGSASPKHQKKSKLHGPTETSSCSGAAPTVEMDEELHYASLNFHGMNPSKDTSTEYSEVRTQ
Test: flow cytometry on HEK293F cells expressing human CD33
Experimental: (§1) The purified antibodies were assessed for binding to stably transfected HEK293F cells expressing human CD33 or cyno CD33 (generation described above) along with the parental HEK293F as negative control. Cells were harvested from tissue culture flasks using non-enzymatic dissociation buffer (Thermo Scientific). The flasks were rinsed twice with PBS and dissociation buffer was added to the flask, and the flask was incubated for 10 minutes at 37° C. until the cells became non-adherent. The cells were centrifuged at 300 g for 5 minutes and resuspended at 1.0×10⁶ cells/ml in staining buffer (Becton Dickinson; Franklin Lakes, N.J.). 50,000 cells/well of each cell type was plated in 50 μl of staining buffer in round bottom plates (Becton Dickinson). 50 μl of 2× concentration test mAb or isotype control was added at 3 dilutions and zero (120 nM, 12 nM, and 1.2 nM and 0 nM), and the resultant solution was incubated 30 min at 4° C. 100 μl staining buffer was added to all wells of each plate, the plates were spun at 300 g for 5 min, the buffer was removed, 200 μl staining buffer was added to all wells of each plate, the plates were spun at 300 g for 5 min, and the buffer was removed. 50 μl of 2 μg/ml of Goat-anti-human Fc AF647 secondary antibody (Jackson Immunoresearch; West Grove, Pa.) was added to all wells of the plates, and the plates were incubated for 30 min at 4° C. 100 μl staining buffer was added to all wells of the plates, the plates were spun at 300 g for 5 min, and the buffer was removed. 200 μl running buffer (running buffer is Staining buffer, 1 mM EDTA, 0.1% Pluronic Acid) was added to all wells of the plates, the plates were spun at 300 g for 5 min, and the buffer was removed. 30 ul running buffer containing Sytox Green live/dead dye (ThermoFisher) was added to all wells with cells and the plates were read on an iQue IntelliCyt flow cytometer. Cells were gated on forward vs. side scatter to eliminate debris, then on singlets and then on live cells which excluded the Sytox stain. Antibody binding was assessed by the mean fluorescence intensity in the AF647 channel. […]

Compared with B1, B2 is lower in “mean fluorescence intensity at 0.6 nM mAb” value: 205000 MFI for the first, 153000 MFI for the second.

Compared with B3, B4 is lower in “mean fluorescence intensity at 0.6 nM mAb” value: 154 MFI for the first, 151 MFI for the second.

For B5, the “mean fluorescence intensity at 0.6 nM mAb” value was 138000 MFI.

Going from B1 to B2, the “mean fluorescence intensity at 6 nM mAb” value falls from 409000 MFI to 315000 MFI.

Compared with B3, B4 is higher in “mean fluorescence intensity at 6 nM mAb” value: 170 MFI for the first, 183 MFI for the second.

With B5 the “mean fluorescence intensity at 6 nM mAb” value was 363000 MFI.

Compared with B1, B2 is lower in “mean fluorescence intensity at 60 nM mAb” value: 519000 MFI for the first, 304000 MFI for the second.

First: B3
Second: B4
The “mean fluorescence intensity at 60 nM mAb” value of the first is lower: 176 MFI for the first, 214 MFI for the second.

B5 was tested, and the “mean fluorescence intensity at 60 nM mAb” value was 390000 MFI.

Biological target: T2, Cyno CD33 full length (cynomolgus monkey)
T2 construct: Stably expressed on HEK293F cells by lentiviral transduction; also called Cyno CD33 (on HEK293F cells)
T2 sequence (chain, as listed by the source limits assumed): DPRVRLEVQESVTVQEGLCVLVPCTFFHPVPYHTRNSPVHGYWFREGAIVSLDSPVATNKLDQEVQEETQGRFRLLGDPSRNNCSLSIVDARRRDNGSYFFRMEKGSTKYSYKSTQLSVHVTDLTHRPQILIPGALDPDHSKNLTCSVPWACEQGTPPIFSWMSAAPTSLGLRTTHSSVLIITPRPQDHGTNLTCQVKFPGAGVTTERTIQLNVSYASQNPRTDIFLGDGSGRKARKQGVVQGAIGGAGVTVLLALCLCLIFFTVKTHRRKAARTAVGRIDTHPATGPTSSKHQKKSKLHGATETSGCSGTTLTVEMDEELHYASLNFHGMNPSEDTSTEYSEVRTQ
Test: flow cytometry on HEK293F cells expressing cyno CD33
Experimental: as §1

First: B1
Second: B2
The “mean fluorescence intensity at 0.6 nM mAb” value of the first is higher: 35200 MFI for the first, 22100 MFI for the second.

Compared with B3, B4 is higher in “mean fluorescence intensity at 0.6 nM mAb” value: 116 MFI for the first, 117 MFI for the second.

For B5, the “mean fluorescence intensity at 0.6 nM mAb” value was 36200 MFI.

First: B1
Second: B2
The “mean fluorescence intensity at 6 nM mAb” value of the first is higher: 36900 MFI for the first, 33400 MFI for the second.

B3 and B4 are the same in “mean fluorescence intensity at 6 nM mAb” value: 135 MFI for the first, 135 MFI for the second.

In the case of B5, the “mean fluorescence intensity at 6 nM mAb” value is reported as 35700 MFI.

Compared with B1, B2 is higher in “mean fluorescence intensity at 60 nM mAb” value: 40700 MFI for the first, 45000 MFI for the second.

First: B3
Second: B4
The “mean fluorescence intensity at 60 nM mAb” value of the first is lower: 180 MFI for the first, 202 MFI for the second.

For B5, the “mean fluorescence intensity at 60 nM mAb” value was 37500 MFI.

Biological target: T3, human CD33 (human, UniProt P20138 18-364)
T3 sequence (P20138 18-364 limits assumed): as the sequence (P20138 18-364 limits assumed) above
Test: cell-based or functional assay

B6 was tested, and the “Primary AML Cell Killing EC50 (nM), ex vivo AML patient whole blood” value was 3.96 nM.

Biological target: T3, human CD33
Test: cell-based or functional assay
Remark: another data set of the same source

B7 and B8 are within 1.5-fold of each other in “Cytotoxicity EC50 (nM), T-cell mediated cytotoxicity of MOLM-13” value (“Cytotoxicity EC50 (nM)” below): 0.513 nM for the first, 0.667 nM for the second.

B9 and B10 are within 1.5-fold of each other in “Cytotoxicity EC50 (nM)” value: 0.35 nM for the first, 0.41 nM for the second.

Going from B11 to B12, the “Cytotoxicity EC50 (nM)” value rises from 0.538 nM to 1.26 nM (2.3-fold).

Compared with B13, B14 is 7.1-fold lower in “Cytotoxicity EC50 (nM)” value: 0.473 nM for the first, 0.067 nM for the second.

With B15 the “Cytotoxicity EC50 (nM)” value was 10.6 nM.
